Molecular target: PD-1 protein on the surface of Jurkat PD-1 NFAT line cells (UniProt Q15116)
Experiment: cell-based or functional assay

Chain of UniProt Q15116 (Q15116 25-288 limits assumed): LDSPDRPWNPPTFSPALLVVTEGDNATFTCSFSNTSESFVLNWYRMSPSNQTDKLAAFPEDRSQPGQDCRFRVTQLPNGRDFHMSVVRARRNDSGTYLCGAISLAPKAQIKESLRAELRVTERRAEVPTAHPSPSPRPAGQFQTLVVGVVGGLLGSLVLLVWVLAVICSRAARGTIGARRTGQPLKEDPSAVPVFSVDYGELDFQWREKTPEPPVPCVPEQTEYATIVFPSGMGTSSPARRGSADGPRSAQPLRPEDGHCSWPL

- Relative specific activity, % (ED50 standard / ED50 test, Jurkat PD-1 NFAT luminescence); 20 mg/ml, histidine, trehalose 100 mg/ml, 37 C, initial control: 105%
- Relative specific activity, %; 20 mg/ml, acetate pH 5.0, trehalose 80 mg/ml, 37 C, 2 weeks: 103%
- Relative specific activity, %; 20 mg/ml, acetate pH 5.0, trehalose 80 mg/ml, 37 C, 4 weeks: 94%
- Relative specific activity, %; 20 mg/ml, acetate pH 5.0, trehalose 80 mg/ml, 37 C, initial control: 100%
- Relative specific activity, %; 20 mg/ml, acetate pH 5.0, trehalose 100 mg/ml, 37 C, 2 weeks: 93%
- Relative specific activity, %; 20 mg/ml, acetate pH 5.0, trehalose 100 mg/ml, 37 C, 4 weeks: 99%
- Relative specific activity, %; 20 mg/ml, acetate pH 5.0, trehalose 100 mg/ml, 37 C, initial control: 89%
- Relative specific activity, %; 20 mg/ml, histidine, trehalose 80 mg/ml, 37 C, 2 weeks: 103%
- Relative specific activity, %; 20 mg/ml, histidine, trehalose 80 mg/ml, 37 C, 4 weeks: 94%
- Relative specific activity, %; 20 mg/ml, histidine, trehalose 80 mg/ml, 37 C, initial control: 100%
- Relative specific activity, %; 20 mg/ml, histidine, trehalose 100 mg/ml, 37 C, 2 weeks: 97%
- Relative specific activity, %; 20 mg/ml, histidine, trehalose 100 mg/ml, 37 C, 4 weeks: 110%
- Relative specific activity, %; 100 mg/ml, acetate pH 5.0, trehalose 80 mg/ml, 37 C, 2 weeks: 94%
- Relative specific activity, %; 100 mg/ml, acetate pH 5.0, trehalose 80 mg/ml, 37 C, 4 weeks: 105%
- Relative specific activity, %; 100 mg/ml, acetate pH 5.0, trehalose 80 mg/ml, 37 C, initial control: 89%
- Relative specific activity, %; 100 mg/ml, acetate pH 5.0, trehalose 100 mg/ml, 37 C, 2 weeks: 112%
- Relative specific activity, %; 100 mg/ml, acetate pH 5.0, trehalose 100 mg/ml, 37 C, 4 weeks: 97%
- Relative specific activity, %; 100 mg/ml, acetate pH 5.0, trehalose 100 mg/ml, 37 C, initial control: 107%
- Relative specific activity, %; 100 mg/ml, histidine, trehalose 80 mg/ml, 37 C, 2 weeks: 94%
- Relative specific activity, %; 100 mg/ml, histidine, trehalose 80 mg/ml, 37 C, 4 weeks: 105%
- Relative specific activity, %; 100 mg/ml, histidine, trehalose 80 mg/ml, 37 C, initial control: 89%
- Relative specific activity, %; 100 mg/ml, histidine, trehalose 100 mg/ml, 37 C, 2 weeks: 104%
- Relative specific activity, %; 100 mg/ml, histidine, trehalose 100 mg/ml, 37 C, 4 weeks: 97%
- Relative specific activity, %; 100 mg/ml, histidine, trehalose 100 mg/ml, 37 C, initial control: 101%
- Relative specific activity, %; 150 mg/ml, acetate pH 5.0, trehalose 80 mg/ml, 37 C, 2 weeks: 99%
- Relative specific activity, %; 150 mg/ml, acetate pH 5.0, trehalose 80 mg/ml, 37 C, 4 weeks: 108%
- Relative specific activity, %; 150 mg/ml, acetate pH 5.0, trehalose 80 mg/ml, 37 C, initial control: 91%
- Relative specific activity, %; 150 mg/ml, acetate pH 5.0, trehalose 100 mg/ml, 37 C, 2 weeks: 106%
- Relative specific activity, %; 150 mg/ml, acetate pH 5.0, trehalose 100 mg/ml, 37 C, 4 weeks: 103%
- Relative specific activity, %; 150 mg/ml, acetate pH 5.0, trehalose 100 mg/ml, 37 C, initial control: 92%
- Relative specific activity, %; 150 mg/ml, histidine, trehalose 80 mg/ml, 37 C, 2 weeks: 99%
- Relative specific activity, %; 150 mg/ml, histidine, trehalose 80 mg/ml, 37 C, 4 weeks: 108%
- Relative specific activity, %; 150 mg/ml, histidine, trehalose 80 mg/ml, 37 C, initial control: 91%
- Relative specific activity, %; 150 mg/ml, histidine, trehalose 100 mg/ml, 37 C, 2 weeks: 100%
- Relative specific activity, %; 150 mg/ml, histidine, trehalose 100 mg/ml, 37 C, 4 weeks: 105%
- Relative specific activity, %; 150 mg/ml, histidine, trehalose 100 mg/ml, 37 C, initial control: 97%
B1: prolgolimab (antibody, from a related filing, V domains shown)
VH: QVQLVQSGGGLVQPGGSLRLSCAASGFTFSSYWMYWVRQVPGKGLEWVSAIDTGGGRTYYADSVKGRFAISRVNAKNTMYLQMNSLRAEDTAVYYCARDEGGGTGWGVLKDWPYGLDAWGQGTLVTVSS
VL: QPVLTQPLSVSVALGQTARITCGGNNIGSKNVHWYQQKPGQAPVLVIYRDSNRPSGIPERFSGSNSGNTATLTISRAQAGDEADYYCQVWDSSTAVFGTGTKLTVLQ
